One variant from IntAct's records for PubMed 17053789 can be followed below.

B1: Protection of telomeres protein 1 (Mus musculus), Q91WC1 (parent)
chain: MSLVSTAPYTYTPLNLLKEGTIANVYGVVKFFKPPYVSKGTDYCSVVTIVDQTNVKLTCMLFSGNYEALPIIYKVGDIVRFHRLKIQVYKNELQGINCSGFASLTFEGTVGMPVTARTSSKVFSFTPQDQKMVEALRVWASKHISASSTLVQLCDAQPMQYYDLTCQLLGKAQVDSTAFLLKVWDGTQTVLPSWRVSTQDLTFEGDLSHIERLQSLVVDILVYDNHVQVARSIEVGCFLRLYSLHTKLQPGNSETSSSESLRLEFHLHGGTSYGRGIRVLPDTSPCVDQLKKALEGANLPVTETSTGICQSENGDSSALSNSGSGAVSPYEEERCQQVSATILTNHQHLEKTPLCAILTQKAPQQYRVRAKLRSYLPRRLSQSVKLLCPKCHSVQEVPHGDSLDKILQDAATEAPDIKLKATSLYYSKVWTTEDQGGRQVAVHFVKNNGILPASSECLILIEGGRLCEVSKLSSKFHSVMPVRSGPESLELLTLSAPFLIQGKVHHYGCKQCSSLKPIQNLNSRFHKGPWTPSSVAEALGVVPLQYVFVMVFTLDDGTGVLEAYLKDSEHFFKIPASEVLTDDDLQRSLETIMDMICPPGIKVDAYPWLECLLKSYNVTIGTERRICYQIFDTTVAENVV
partner: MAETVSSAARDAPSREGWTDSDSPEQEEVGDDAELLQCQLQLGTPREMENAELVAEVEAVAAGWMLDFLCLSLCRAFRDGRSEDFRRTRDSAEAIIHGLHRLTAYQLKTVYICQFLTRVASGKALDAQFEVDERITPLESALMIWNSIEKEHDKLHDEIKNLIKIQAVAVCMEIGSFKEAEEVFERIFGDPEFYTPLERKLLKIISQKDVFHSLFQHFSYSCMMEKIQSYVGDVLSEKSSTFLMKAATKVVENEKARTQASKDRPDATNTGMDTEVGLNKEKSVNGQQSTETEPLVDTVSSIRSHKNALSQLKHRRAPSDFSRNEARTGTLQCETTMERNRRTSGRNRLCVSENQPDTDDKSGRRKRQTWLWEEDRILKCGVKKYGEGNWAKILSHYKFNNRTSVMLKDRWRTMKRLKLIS

In the assay the parent is B1. The settings on record: with terf1_mouse Terf1, P70371.
Turning to Y223A, the “effect of a mutation on the interaction” value is on record as “disrupting interaction”.
